Patent publication US20250346685A1

What was measured:
[1] = biological target: FcgRI (UniProt P12314); assay: SPR
[2] = biological target: human CD3 on T cells (Jurkat cells; human peripheral blood CD4+ and CD8+ T-cells) (human) (UniProt P07766); assay: flow cytometry on Jurkat cells

Sequence of FcgRI (P12314 16-288): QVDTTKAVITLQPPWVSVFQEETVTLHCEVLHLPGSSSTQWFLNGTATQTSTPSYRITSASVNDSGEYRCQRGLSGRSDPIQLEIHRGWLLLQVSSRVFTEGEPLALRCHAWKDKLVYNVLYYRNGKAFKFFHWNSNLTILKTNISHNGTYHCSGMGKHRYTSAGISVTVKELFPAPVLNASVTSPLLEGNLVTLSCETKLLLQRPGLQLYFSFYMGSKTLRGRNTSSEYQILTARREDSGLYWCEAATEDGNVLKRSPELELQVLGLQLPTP

Row | Kd [1] [nM] | affinity (FACS) [2] [nM] | Substance
1 | 8.78 | – | KLH-hIgG4
2 | – | 0.27 | OKT3-hIgG1 (antibody)
